What is called Kd is the concentration at which binding is half-saturated. Lower therefore signals a tighter complex. As usually defined, the koff is a measure of how fast the partners let go of each other. One may read the kon as a measure of how fast the partners come together.

This passage reports Kd, koff and kon results from patent publication US20140302029A1 (SAMSUNG ELECTRONICS, published 2014).

The target of assay [1] is T1, c-Met-Fc (#358-MT/CF, R&D Systems) (human, UniProt P08581 25-932).
T1 construct: also called human c-Met/Fc fusion protein (R&D Systems); not shown: Fc part of the bought fusion
Description: SPR, Biacore T100; ME-03S captured on human Fab binder, c-Met-Fc injected. The method, then:
(§1) In addition, the affinities of the prepared anti-c-Met/anti-EGFR bispecific antibody toward two types of antigens (c-Met/EGFR) were each identified using Biacore T100 (GE). A human Fab binder (GE Healthcare) was immobilized at the surface of a CM5 chip (#BR-1005-30, GE) according to the manufacturer's specifications. […] 10 mM Glycine-HCl (pH 1.5) solution was injected thereto to regenerate the surface. In order to measure affinity, the data obtained from this experiment was fitted using BIAevaluation software (GE Healthcare, Biacore T100 evaluation software).
In general terms: Surface plasmon resonance follows binding to a sensor surface in real time, without labels.

In assay [2] the target is T2, EGFR-Fc (#344-ER, R&D Systems) (UniProt P00533 25-645).
T2 construct: Bought reagent; not shown: Fc part of the bought fusion
Nature of the assay: SPR, Biacore T100; ME-03S captured on human Fab binder, EGFR-Fc injected. The method, then:
as §1

T1 sequence (P08581 25-932 limits assumed): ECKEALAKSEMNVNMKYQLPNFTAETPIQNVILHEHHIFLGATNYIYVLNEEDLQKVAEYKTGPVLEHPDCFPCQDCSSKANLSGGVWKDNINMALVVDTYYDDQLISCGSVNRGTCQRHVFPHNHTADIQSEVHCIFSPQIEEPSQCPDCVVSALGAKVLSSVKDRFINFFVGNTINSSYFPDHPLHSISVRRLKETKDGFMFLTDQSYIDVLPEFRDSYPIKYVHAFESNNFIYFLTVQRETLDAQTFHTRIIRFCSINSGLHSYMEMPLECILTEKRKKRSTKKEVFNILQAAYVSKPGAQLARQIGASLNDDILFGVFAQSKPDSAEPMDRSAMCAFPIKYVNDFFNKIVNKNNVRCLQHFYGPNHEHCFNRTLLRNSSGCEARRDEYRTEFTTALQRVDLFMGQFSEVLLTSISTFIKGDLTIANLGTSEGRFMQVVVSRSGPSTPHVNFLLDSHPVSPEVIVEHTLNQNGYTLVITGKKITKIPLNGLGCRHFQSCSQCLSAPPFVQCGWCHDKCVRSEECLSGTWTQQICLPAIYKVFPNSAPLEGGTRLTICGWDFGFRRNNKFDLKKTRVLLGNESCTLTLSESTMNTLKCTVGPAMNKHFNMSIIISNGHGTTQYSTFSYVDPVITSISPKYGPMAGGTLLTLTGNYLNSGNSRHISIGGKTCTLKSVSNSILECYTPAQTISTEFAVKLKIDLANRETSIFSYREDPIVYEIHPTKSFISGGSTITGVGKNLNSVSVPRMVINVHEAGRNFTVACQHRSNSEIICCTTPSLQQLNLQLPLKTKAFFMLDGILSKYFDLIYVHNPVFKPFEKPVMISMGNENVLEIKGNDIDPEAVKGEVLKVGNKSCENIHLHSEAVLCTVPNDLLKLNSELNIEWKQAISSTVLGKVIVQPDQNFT

B1: anti-c-Met/anti-EGFR bispecific antibody ME-03S (bispecific antibody)
heavy: EVQLVESGGGLVQPGGSLRLSCAASGFTFTDYYMSWVRQAPGKGLEWLGFIRNKANGYTTEYSASVKGRFTISRDNSKNTLYLQMNSLRAEDTAVYYCARDNWFAYWGQGTLVTVSSASTKGPSVFPLAPCSRSTSESTAALGCLVKDYFPEPVTVSWNSGALTSGVHTFPAVLQSSGLYSLSSVVTVPSSNFGTQTYTCNVDHKPSNTKVDKTVERKCCVECPPCPAPPVAGPSVFLFPPKPKDTLMISRTPEVTCVVVDVSHEDPEVQFNWYVDGVEVHNAKTKPREEQFNSTFRVVSVLTVVHQDWLNGKEYKCKVSNKGLPAPIEKTISKTKGQPREPQVYTLPPSREEMTKNQVSLTCLVKGFYPSDIAVEWESNGQPENNYKTTPPMLDSDGSFFLYSKLTVDKSRWQQGNVFSCSVMHEALHNHYTQKSLSLSPGKGGGGSGGGGSQVQLVQSGAEVKKPGSSVKVSCKASGFTFTDYKIHWVRQAPGQCLEWMGYINPNSGYSTYASKFQGRVTITADKSTSTAYMELSSLRSEDTAVYYCARLSPGGYYVMDAWGQGTTVTVSSGGGGSGGGGSGGGGSDIQMTQSPSSLSASVGDRVTITCRASQGINNYLNWYQQKPGKAPKLLIYNTNNLQTGVPSRFSGSGSGTEFTLTISSLQPEDEATYYCLQHNSFPTFGQCTKLEIKRT
light: DIQMTQSPSSLSASVGDRVTITCKSSQSLLASGNQNNYLAWYQQKPGKAPKMLIIWASTRVSGVPSRFSGSGSGTDFTLTISSLQPEDFATYYCQQSYSRPYTFGQGTKVEIKRTVAAPSVFIFPPSDEQLKSGTASVVCLLNNFYPREAKVQWKVDNALQSGNSQESVTEQDSKDSTYSLSSTLTLSKADYEKHKVYACEVTHQGLSSPVTKSFNRGEC
Consider B1, for which, in assay [1], the Kd turned out to be 0.14 nM, the koff was found to be 9.3e-05 s⁻¹ and the association rate constant (kon) came out at 660000 M⁻¹ s⁻¹. In assay [2], this molecule displayed a dissociation constant (Kd) of 0.12 nM, a koff of 2.7e-05 s⁻¹ and an on-rate (kon) of 240000 M⁻¹ s⁻¹.
